Measurements from PMC9977683, “IFNγ binding to extracellular matrix prevents fatal systemic toxicity” (Nature Immunology, 2023).

T1: IFNγR1 extracellular domain (amino acids 26–254), recombinant (mouse, UniProt P15261 26-254)
T1 construct: mouse interferon-gamma receptor 1, extracellular domain, amino acids 26-254, cloned from mouse cDNA into pET26b-N-His6-SUMO; Immobilised on the chip through anti-His5; source: E. coli (T7 express, with pRARE plasmid), periplasmic expression, purified (osmotic shock, HisTrap, gel filtration); not shown: His6-SUMO, N-terminal, cleaved; His6, C-terminal, kept
T1 sequence (looked up): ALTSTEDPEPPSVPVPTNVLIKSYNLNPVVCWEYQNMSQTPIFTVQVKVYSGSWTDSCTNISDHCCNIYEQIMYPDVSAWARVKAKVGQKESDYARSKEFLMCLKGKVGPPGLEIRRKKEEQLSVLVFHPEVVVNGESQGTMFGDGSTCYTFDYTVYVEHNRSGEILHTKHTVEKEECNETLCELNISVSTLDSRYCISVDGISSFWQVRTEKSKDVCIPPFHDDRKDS

B1: Interferon-γ (IFNγ), recombinant (ligand, mouse, UniProt P01580 23-155, looked up)
chain: HGTVIESLESLNNYFNSSGIDVEEKSLFLDIWRNWQKDGDMKILQSQIISFYLRLFEVLKDNQAISNNISVIESHLITTFFSNSKAKKDAFMSIAKFEVNNPQVQRQAFNELIRVVHQLLPESSLRKRKRSRC
notes: mouse interferon-gamma, cDNA without the leader peptide, codon optimized, in pET28-N-His6-SUMO; also called IFNγ^wt; source: E. coli (T7 express, with pRARE plasmid), purified (HisTrap, size-exclusion chromatography); not shown: His6-SUMO, N-terminal, cleaved
B2: IFNγ–green fluorescent protein fusion protein (IFNγ–GFP), recombinant (ligand, mouse, UniProt P01580 23-155, looked up)
chain: B1 chain
notes: mouse interferon-gamma, cDNA without the leader peptide, with GFP fused to the C-terminus; source: E. coli (T7 express, with pRARE plasmid), purified (HisTrap, Superdex 200); not shown: His6-SUMO, N-terminal, cleaved; GFP, C-terminal, kept

What was measured:
[1] = molecular target: IFNγ receptor (Homo sapiens) (UniProt P15260); settings: cited from earlier work
[2] = molecular target: T1, IFNγR1 extracellular domain (amino …); assay: SPR; Biacore T200, CM4 chip coated with anti-His5 onto which recombinant IFNγR1 was immobilised; IFNγ variants injected over 180 s at 0, 1, 2.5, 5, 10, 25 and 50 nM; settings: both partners purified

Sequence of IFNγ receptor (Homo sapiens) (P15260 18-245): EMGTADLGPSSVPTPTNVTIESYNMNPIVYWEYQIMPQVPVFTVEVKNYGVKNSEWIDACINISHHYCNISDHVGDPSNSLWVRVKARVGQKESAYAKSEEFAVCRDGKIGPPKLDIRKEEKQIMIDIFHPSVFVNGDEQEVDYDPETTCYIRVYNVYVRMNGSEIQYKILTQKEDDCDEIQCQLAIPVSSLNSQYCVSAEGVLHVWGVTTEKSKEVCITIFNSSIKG

| Molecule | Kd [1] [nM] | binding result [2] |
| --- | --- | --- |
| IFNγ (from UniProt P01579) | 0.5 | – |
| B1 | – | binds |
| B2 | – | binds |
